Test results from US20190276521A1 (Kyowa Kirin, published 2019).

T1: Chimera F (human with bovine residues, UniProt P00738 19-406)
T1 construct: Expi293F; also called human Hp/bovine Hp chimeric protein
T1 chain: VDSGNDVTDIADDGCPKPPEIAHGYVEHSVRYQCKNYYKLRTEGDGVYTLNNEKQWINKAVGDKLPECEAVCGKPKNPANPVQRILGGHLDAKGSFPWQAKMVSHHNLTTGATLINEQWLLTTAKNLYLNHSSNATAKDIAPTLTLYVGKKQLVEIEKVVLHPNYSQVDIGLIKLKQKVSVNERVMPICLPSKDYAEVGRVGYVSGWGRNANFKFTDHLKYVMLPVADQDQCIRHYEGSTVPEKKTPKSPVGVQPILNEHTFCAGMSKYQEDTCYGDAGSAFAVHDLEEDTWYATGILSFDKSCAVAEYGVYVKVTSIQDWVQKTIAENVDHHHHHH

T2: human haptoglobin (human Hp) (human, UniProt P00738 19-160; P00738 162-406)
T2 sequence 1: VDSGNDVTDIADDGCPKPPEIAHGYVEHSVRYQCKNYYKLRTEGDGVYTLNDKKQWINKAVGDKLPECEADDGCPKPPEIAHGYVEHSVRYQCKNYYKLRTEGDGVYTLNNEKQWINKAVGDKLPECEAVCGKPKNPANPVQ
T2 sequence 2: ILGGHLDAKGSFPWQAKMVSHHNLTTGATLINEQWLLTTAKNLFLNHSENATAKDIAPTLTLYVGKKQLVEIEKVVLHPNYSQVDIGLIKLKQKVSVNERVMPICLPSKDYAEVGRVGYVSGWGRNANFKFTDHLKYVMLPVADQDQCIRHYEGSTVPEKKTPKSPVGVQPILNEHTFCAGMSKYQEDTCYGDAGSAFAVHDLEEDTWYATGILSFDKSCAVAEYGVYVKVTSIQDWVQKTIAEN

T3: Chimera A (human with bovine residues, UniProt P00738 19-406)
T3 construct: α and β linked by a disulfide bond; Expi293F; also called human Hp/bovine Hp chimeric protein
T3 chain: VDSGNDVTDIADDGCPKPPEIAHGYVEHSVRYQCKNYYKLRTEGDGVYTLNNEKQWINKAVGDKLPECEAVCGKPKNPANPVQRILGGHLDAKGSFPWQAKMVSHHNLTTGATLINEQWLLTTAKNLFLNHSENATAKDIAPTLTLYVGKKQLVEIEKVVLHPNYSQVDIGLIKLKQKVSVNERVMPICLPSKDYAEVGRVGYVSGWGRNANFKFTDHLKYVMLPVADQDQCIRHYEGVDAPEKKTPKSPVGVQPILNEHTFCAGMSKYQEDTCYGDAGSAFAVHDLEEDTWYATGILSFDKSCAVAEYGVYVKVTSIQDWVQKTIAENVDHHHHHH


Assays:
[1] = target: histidine tag-conjugated soluble CD16a (V) (human) (UniProt P08637); assay: ELISA, soluble CD16a-His captured by anti-Tetra-His antibody, anti-human IgG-HRP detection
Sequence of histidine tag-conjugated soluble CD16a (V) (human) (P08637 other isoform, or with tags, fused parts or gaps limits assumed): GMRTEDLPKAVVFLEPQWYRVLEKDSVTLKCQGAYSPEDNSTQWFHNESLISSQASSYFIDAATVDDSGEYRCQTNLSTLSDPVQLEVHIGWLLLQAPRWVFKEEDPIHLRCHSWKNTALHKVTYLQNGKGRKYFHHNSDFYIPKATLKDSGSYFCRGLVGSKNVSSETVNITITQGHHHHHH

[2] = target: full-length CD16a (V) expressed on CHO/DG44 cells (human) (UniProt P08637); assay: flow cytometry competition on CD16a-expressing CHO/DG44 cells; competitor: anti-DNP antibody complexed with DNP-BSA-biotin
Sequence of full-length CD16a (V) expressed on CHO/DG44 cells (human) (P08637 17-254 F176V limits assumed): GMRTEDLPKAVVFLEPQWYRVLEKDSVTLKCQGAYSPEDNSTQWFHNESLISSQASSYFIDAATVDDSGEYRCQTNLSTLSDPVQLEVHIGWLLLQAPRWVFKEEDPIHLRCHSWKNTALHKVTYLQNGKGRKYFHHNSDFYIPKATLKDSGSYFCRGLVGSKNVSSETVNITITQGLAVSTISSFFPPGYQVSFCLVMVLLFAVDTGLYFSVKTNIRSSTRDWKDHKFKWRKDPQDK

[3] = target: T1, Chimera F; assay: ELISA on plate-coated antigen (-: absorbance ratio less than 0.5)
Experimental: (§1) The chimeras A to F, the recombinant human Hp and bovine Hp were immobilized in a 96-well plate based on the method described in Example 5, and blocking was performed.
(§2) The plate was washed 3 times with PBST, Goat anti Human IgG (H&L)-HRP or Rabbit anti-Mouse IgG-HRP diluted with 1% BSA-PBS was dispensed into the plate at 50 μL/well, and the plate was left to stand for 1 hour at room temperature. The color development and the absorbance measurement to be carried out thereafter were performed based on the method described in Example 5. By regarding the absorbance of the well, in which each of the anti-Hp antibodies was reacted with the recombinant human Hp, as 1, a ratio of the absorbance, in which the sample was reacted, to the aforementioned absorbance was calculated.

[4] = target: T2, human haptoglobin (human Hp); assay: SEC-MALS of antibody 0.5 mg/mL mixed with human Hp 1.3 mg/mL, 16 hours at 37° C.
Experimental: In order to check whether the anti-Hp antibodies have bound to the human Hp and formed a immune complex, analysis was performed by gel filtration chromatography (Size Exclusion Chromatography, SEC) (column; BioSep SEC-s4000, 7.8×300 mm, Phenomenex Inc.) using HPLC (Prominence, Shimadzu Corporation).
The column was equilibrated using a mobile phase [50 mmol/L phosphate buffer (pH 7.0, 500 mmol/L NaCl)], the anti-Hp antibodies and the human Hp (Japan Blood Products Organization) were diluted with PBS and mixed together such that the concentrations of the anti-Hp antibodies and the human Hp became 0.5 mg/mL and 1.3 mg/mL, respectively, and the mixed solution was left to stand for 16 hours at 37° C.
The components contained in […] of the mixed solution were separated at a flow rate of 0.5 mL/min. Then, for each peak detected at a wavelength of 280 nm, a molecular weight was calculated using a maximum value of scattering intensity detected by a multi angle light scattering (MALS) detector (miniDAWN TREOS, Wyatt Technology Corporation).

[5] = target: T2, human haptoglobin (human Hp); assay: competitive ELISA on plate-coated human Hp (-: absorbance less than 0.5); competitor: anti-Hp polyclonal antibody
Experimental: The immobilized solution was removed, 1% BSA-PBS was then dispensed into the plate at 100 μL/well, and the plate was left to stand for 1 hour at room temperature for blocking and washed 3 times with PBST.
The plate was washed 3 times of PBST, and ABTS was dispensed into the plate at 50 μL/well for developing color. At a point in time when color was appropriately developed, 1% SDS was dispensed into the plate at 50 μL/well, and by using a plate reader, the absorbance at a sample wavelength of 415 nm and a reference wavelength of 490 nm was measured.

[6] = target: T3, Chimera A; assay: ELISA on plate-coated antigen (-: absorbance ratio less than 0.5)
Experimental: as §1, §2

| EC50 [1] [mg/L] | IC50 [2] [mg/L] | absorbance ratio to recombinant human Hp [3] | Peak molecular weight of immune complex [4] | absorbance (415 nm, reference 490 nm) [5] | absorbance ratio to recombinant human Hp [6] | Molecule |
| --- | --- | --- | --- | --- | --- | --- |
| 1.06 | 540 | – | – | – | – | Intravenous immunoglobulin (IVIG) (antibody) |
| 0.763 | 238 | < 0.5 | 523000 | – | – | anti-Hp antibody #27 (antibody, V domains shown, Recombinant human IgG1/kappa antibody; also called clone #27; #27 antibody) VH: EQQLVESGGGLVQPGRSLTLSCVASGFTFGDYAMGWVRQAPGKGLEWVSSISSDALYKGYVDSVKGRFTVSRDNAKNSLYLQMDNLRTEDTAFYYCTKDLRSGNFGQYGDWGQGTLVTVSS VL: AIQMTQSPSSLSASVGDRVTITCRASQGIGSDLTWYQQEPGKAPKLLIYAASTLQSGVPSRFSGGGSGTDFTLTISSLQPEDAATYYCLQSHGYPLTFGQGTKLEIK |
| 1.99 | – | – | 341000 | – | – | anti-Hp antibody #4 (antibody, V domains shown, also called clone #4; #4 antibody) VH: EVHLLESGGGLVQPGGSLRLSCQASGFTFNSNAMSWVRRAPGKGLEWISSIGANTNYIYTADSVKGRFTISRDNSKNTLYLQMNSLRAEDTAAYYCAKNRDRYSYDAWSVWGQGTTVTVSS VL: DIQMTQSPSTLSASVGDRVTITCRASQSIDIWLAWYQQKPGKAPKLLIYEASSLESEVPSRFSGSGSGTEFTLTISSLQPDDFATYYCQAYNSNYPYAFGQGTNLEIK |
| 0.473 | – | – | – | < 0.5 | – | anti-Hp antibody #96-6 (antibody, V domains shown, Recombinant human IgG1/kappa antibody; also called clone #96-6; Labeled #96-6) VH: EVQLLESGGGLVQPGGSLRLSCEASGSSVSSHFMTWVRQSPGKGLEWVSSISPNPAYTYYANSVKGRFTISRDNSKNMLYLQMNDLRAEDTARYYCARRSDFDTWGQGTMLTVSS VL: DIQMTQSPSAMSASVGDRVTITCRASRYIGKDLAWFQQKPGEVPKRLIYDASSLQSGVPSRFSGSGSGTEFTLTVSNLQPEDLGTYYCQHYYTFPLTFGPGTKVDIK |
| 0.805 | – | – | – | < 0.5 | – | anti-Hp antibody #6 (antibody, V domains shown, Recombinant human IgG1/kappa antibody; also called clone #6; #6 antibody) VH: EVQLLESGGGLVQPGGSLKLSCVASEFTFSNYAMSWVRQAPGKGLEWVSTFSSGGSRTFYADSVRGRFTISRDNSNNMLFLQIDSLRAEDTAVYYCAKAQFVGHWAQYNYWGQGALVTVSS VL: DIQMTQSPSSLSASVGDRVAITCRASQGIRNYLAWYQQKPGKVPKLLIYDAFILQSGVPSRFSGSGSGTDFTLTISSLQPEDVATYYCQKSDSPPLTFGGGTKVEIK |
| 0.405 | – | – | – | < 0.5 | < 0.5 | anti-Hp antibody #105 (antibody, V domains shown, Recombinant human IgG1/kappa antibody) VH: QVHLQQWGAGLLKPSETLSLTCNVYGSSLSQYFWNWIRQPPGKGLEWMGRITSGGSTNYNPSLESRVTIIVDTFKNQFSLKLVSVTAADTAVYYCARGPFVEGAAPTVLGTGFSIWGQGTMVTVSS VL: EIVLTQSPGTLSLSPGERATLSCRASQSVNNNYLAWYQQKPGQAPRLLIYDASKRATGIPDRFSGSGSGTDFTLTISRLEPEDFAVYYCQQYGHSRPYTFGQGAKLEIK |
